Several values for one entry are separate records, joined by “and”; a condition that tells them apart may be missing. Equal entries are not always repeated. Where two headings read alike, the source gives them in different places.
B1: E. coli IlvC: Escherichia coli ketol-acid reductoisomerase (ilvC), wild type (protein, UniProt P05793 2-491, looked up)
Ketol-acid reductoisomerase …: ANYFNTLNLRQQLAQLGKCRFMGRDEFADGASYLQGKKVVIVGCGAQGLNQGLNMRDSGLDISYALRKEAIAEKRASWRKATENGFKVGTYEELIPQADLVINLTPDKQHSDVVRTVQPLMKDGAALGYSHGFNIVEVGEQIRKDITVVMVAPKCPGTEVREEYKRGFGVPTLIAVHPENDPKGEGMAIAKAWAAATGGHRAGVLESSFVAEVKSDLMGEQTILCGMLQAGSLLCFDKLVEEGTDPAYAEKLIQFGWETITEALKQGGITLMMDRLSNPAKLRAYALSEQLKEIMAPLFQKHMDDIISGEFSSGMMADWANDDKKLLTWREETGKTAFETAPQYEGKIGEQEYFDKGVLMIAMVKAGVELAFETMVDSGIIEESAYYESLHELPLIANTIARKRLYEMNVVISDTAEYGNYLFSYACVPLLKPFMAELQPGDLGKAIPEGAVDNGQLRDVNEAIRSHAIEQVGKKLRGYMTDMKRIAVAG
B2: Se1_KARI: Slackia exigua (ATCC 700122) ketol-acid reductoisomerase, wild type, SEQ ID NO: 2 (protein, listed as Slackia exigua)
chain: MSVKTKEKEMAVTILYEQDVDPKVIQGLKVGIIGYGSQGHAHALNLMDSGVDVRVGLREGSSSWKTAEEAGLKVTDMDTAAEEADVIMVLVPDEIQPKVYQEHIAAHLKAGNTLAFAHGFNIHYGYIVPPEDVNVIMCAPKGPGHIVRRQFTEGSGVPDLACVQQDATGNAWDIVLSYCWGVGGARSGIIKATFAEETEEDLFGEQAVLCGGLVELVKAGFETLTEAGYPPELAYFECYHEMKMIVDLMYESGIHFMNYSISNTAEYGEYYAGPKVINEQSREAMKEILKRIQDGSFAQEFVDDCNNGHKRLLEQREAINTHPIETTGAQIRSMFSWIKKED

Columns and labels:
Format in all cases: biochemical
[1] = KARI enzyme assay on cell lysates with NADH and NADPH as cofactors; details: for NADH-Dependent Specific Activity: empty vector control subtracted
Description: In this example, different KARI enzymes (Table 7) were screened for their activity with NADH and NADPH as cofactor. The enzymes were expressed in an S. cerevisiae strain by means of 2 micron plasmids carrying the KARI genes under the control of the S. cerevisiae TDH3 promoter. The transformants were cultivated in shake flask fermentations as described below and samples were taken after 44 h, centrifuged at 4000×g for 10 mins at 4° C. and the cell pellets were stored at −80° C. until analysis. The pellets were lysed by bead beating and the lysates were analyzed by KARI activity assay as described below using NADH and NADPH as cofactors.
Patched cells (or single colonies) grown on YPD+G418 plates at 30° C. were mixed into 3 mL YP+12% dextrose+200 mM MES, pH 6.5+G418, in 14 mL culture tubes and incubated at 250 RPM, 30° C. for ˜24 hours. The cells from the cultures were used to inoculate YP+12% dextrose+200 mM MES, pH 6.5+G418, in non-baffled flasks with a vented grey screw-caps at OD600 0.01. The cultures were incubated at 250 RPM, 30° C. for 24 hours, diluted 1:3 and incubated for another 20 h at 250 RPM, 30° C. Samples for enzyme assay pellets and protein quantification pellets were taken from each shake flask, and cell-free supernatant was used to measure glucose levels in shake flasks.
The assay and no substrate control reactions were performed in triplicate for each sample. The following stock solutions were prepared: 1 M potassium phosphate, pH 7, 0.1 M MgCl2, 100 mM DTT, 25 mM NADH or NADPH, 200 mM 2-acetolactate. The 2-acetolactate was made fresh each time by mixing 50 μL Ethyl-2-acetoxy-2-methylacetoacetate (EAMAA) with 990 μL water. Gradually 260 μL of 2 N NaOH was added in 10 μL increments to the EAMAA water mixture. After each addition the sample was vortexed for 15 seconds, and the procedure repeated until the entire 260 μL of 2 N NaOH was added. Afterwards the solution was mixed on an orbital shaker for 20 min (Krampitz, 1957). KARI reaction buffer (100 μL per reaction) was prepared to the following concentrations: 250 mM potassium phosphate, pH 7, 10 mM MgCl2, 1 mM DTT, 0.2 mM NADH or NADPH, 10 mM 2-acetolactate. For the no substrate controls, the 2-acetolactate was substituted with water. 10 μL of each lysate were transferred into a 96 well half area assay plate. The reaction was started with 90 μL of reaction buffer to each well using a multichannel pipette. The samples were mixed immediately. The samples were read at 340 nm every 10 s for 5 min.

[2] = KARI assay in 100-μL scale to measure MgCl2 KM value; details: for Km: NADPH, pH 7.0, read-out: KM Mg^2+
Description: An assay buffer was prepared containing 100 mM potassium phosphate pH 7.0, 1 mM DTT, 2.5 mM (S)-2-acetolactate, and 200 μM NADPH (final concentrations). Five μL purified enzyme and 5 μL of varying concentrations of MgCl2 were placed into a flat-bottom assay plate (Evergreen Scientific). The reactions were initiated by addition of 90 μL assay buffer. The change in absorbance at 340 nm was monitored over 1 min in a plate reader (TECAN).

[3] = KARI assay of purified S. exigua KARI and variants with NADPH (Examples 6-9); details: for U/mg NADPH (specific activity): cofactor NADPH
In short: (§1)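 Kinetic read of NAD(P)H consumption at 340 nm in 100 mM potassium phosphate pH 7.0 with 1 mM DTT, 2.5 mM (S)-2-acetolactate and 10 mM MgCl2, cofactor 200 μM final. For Michaelis–Menten constants, NADPH was varied 200–12 μM and NADH 200–6 μM.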

[4] = KARI assay of purified S. exigua KARI and variants with NADH (Examples 6-9)
In short: as §1

| Molecule | Specific Activity with NADH/Specific Activity with NADPH [1] | NADH-Dependent Specific Activity [1] [U/mg lysate] | KM for Mg^2+, times higher than KM of S. exigua KARI [2] [fold] | Km [2] [µM] | kcat NADPH [3] [s⁻¹] | U/mg NADPH (specific activity) [3] [U/mg] | U/mg NADPH (specific activity) ([3]; listed as Se1_KARI (wt)) [U/mg] | U/mg NADPH (specific activity) ([3]; listed as Se1_KARI^his6) | kcat NADPH ([3]; listed as Se1_KARI (wt)) [s⁻¹] | kcat NADPH ([3]; listed as Se1_KARI^his6) [s⁻¹] | Km ([3]; read-out: Km for cofactor NADPH) [µM] | kcat NADH [4] [s⁻¹] | U/mg NADH (specific activity) ([4]; cofactor NADH) [U/mg] | kcat NADH ([4]; listed as Se1_KARI (wt)) [s⁻¹] | kcat/Km ratio NADH/NADPH (cofactor specificity) ([4]; listed as Se1_KARI (wt)) | kcat NADH ([4]; listed as Se1_KARI^his6) [s⁻¹] | kcat/Km ratio NADH/NADPH (cofactor specificity) ([4]; listed as Se1_KARI^his6) | Km ([4]; read-out: Km for cofactor NADH) [µM] | Ratio NADH/NADPH (U/mg) ([4]; specific activity ratio) |
| --- | --- | --- | --- | --- | --- | --- | --- | --- | --- | --- | --- | --- | --- | --- | --- | --- | --- | --- | --- |
| B1 | 0.175 | 0.04 | 2.9 | 2000 ± 500 |  |  |  |  |  |  |  |  |  |  |  |  |  |  |  |
| B2 | 0.96 | 0.059 |  | 700 | 0.80 | 0.32 ± 0.03 | 0.32 | 0.32 U/mg and 0.32 ± 0.03 U/mg | 0.80 | 0.8 | < 1 | 0.40 | 0.15 | 0.40 | 0.08 | 0.4 | 0.08 | 45 | 0.47 |
